This is an account of results in patent publication US20250346685A1 (published 2025).

Experiment [1] has as its target T1, human CD3εγ-Fc heterodimer (human).
T1 construct: also called human CD3εγ recombinant protein; human CD3εγ protein
T1 chain 1: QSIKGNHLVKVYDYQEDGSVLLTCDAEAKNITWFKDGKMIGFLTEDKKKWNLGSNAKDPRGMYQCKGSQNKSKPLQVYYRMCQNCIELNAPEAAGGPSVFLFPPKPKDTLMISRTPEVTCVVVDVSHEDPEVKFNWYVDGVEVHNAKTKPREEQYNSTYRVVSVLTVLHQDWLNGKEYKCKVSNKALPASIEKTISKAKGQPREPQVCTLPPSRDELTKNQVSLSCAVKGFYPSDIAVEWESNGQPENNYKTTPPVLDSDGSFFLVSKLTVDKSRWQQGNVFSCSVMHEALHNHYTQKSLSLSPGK
T1 chain 2: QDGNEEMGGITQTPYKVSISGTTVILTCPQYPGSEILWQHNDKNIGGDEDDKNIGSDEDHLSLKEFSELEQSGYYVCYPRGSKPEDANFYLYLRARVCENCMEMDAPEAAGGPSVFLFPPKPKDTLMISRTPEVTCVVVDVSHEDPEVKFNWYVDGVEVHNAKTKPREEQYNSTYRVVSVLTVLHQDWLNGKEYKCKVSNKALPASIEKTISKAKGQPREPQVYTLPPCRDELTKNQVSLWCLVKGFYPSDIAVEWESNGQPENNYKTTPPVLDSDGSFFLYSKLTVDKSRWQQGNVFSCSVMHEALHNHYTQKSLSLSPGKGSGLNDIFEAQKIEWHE
The experiment is described as follows: ELISA, coated human CD3εγ recombinant protein. The protocol:
Human CD3εγ recombinant protein was coated overnight at 4° C. After blocking with 2% skim milk, different dilutions of CD3 antibody were added to each well and incubated for 1 hour. After the secondary antibody was developed by adding HPR-labeled goat anti-human IgG Fc and TMB solution, the reaction was stopped with concentrated sulfuric acid and the absorbance was read at 450 nm.
(In an ELISA, binding on a coated surface is turned into a signal by an enzyme label.)

The target in experiment [2] is T2, human CD3 on T cells (Jurkat cells; human peripheral blood CD4+ and CD8+ T-cells) (human, UniProt P07766 23-207).
T2 construct: whole, on cells; also called CD4T; CD4 + T
The experiment can be described thus: flow cytometry on Jurkat cells. The protocol:
Jurkat cells in logarithmic growth phase were blocked with 3% BSA for 30 min, added to 96-well U-plate at 5×10^4 cells per well, centrifuged to discard the supernatant, and added with 50 μL of gradient diluted antibody (antibody concentration:from 30 μg/mL, with 3-fold dilution for 5 gradients) per well, and incubated at 4° C. for 1 hour. After washing off the primary antibody, a 1:300 dilution of Alexa Fluro647 labeled goat anti-human IgG Fc (Jackson ImmunoResearch, 109-606-170) was added to the secondary antibody, incubated for 45 min at 4° C., and, after washing, resuspended in 50 μL of PBS per well for FACS (iQue, intellicyt) detection.

For experiment [3], the target named is T1, human CD3εγ-Fc heterodimer. The experiment is described as follows: SPR (Biacore T200), antigen amine-coupled on CM5 chip, antibody as analyte, 1:1 model. The protocol:
10 μg/mL human or cynomolgus monkey BCMA or CD3εγ recombinant antigen was bound to a CM5 chip (GE healthcare) by amino conjugating, while the amount of antigen bound was controlled to approximately 200 RU. After baseline plateau, gradient diluted antibodies (7 gradients of 2-fold dilutions from 10 μg/mL) were flowed through the chip at a flow rate of 30 μL/min for a binding time of 350 seconds and a dissociation time of 600 seconds. Kinetic constants were fitted using Biacore T200 evaluation software with a 1:1 binding model.
(In general: In SPR one partner is held on a chip, and binding of the other changes the refractive index at the surface.)

Experiment [4] addresses T2, human CD3 on T cells (Jurkat cells; …). The experiment is described as follows: flow cytometry on human peripheral blood CD4+ T-cells. Here is the method: Fresh human peripheral blood was taken and PBMC was isolated by Ficoll. Paque Plu (GE, 17-1440-03). PBMC was adjusted to 5×10⁵ cells/mL with 4% calf serum (Hyclone, SH30626.06), 100 μL/well was added to a 96-well U-plate, the supernatant was centrifuged off and 100 μL of gradient diluted antibody (with starting concentration of 1800 nM, 3-fold dilution, 10 gradients) was added to each well and incubated for 60 min at 4° C. 50 μL/well of Alexa Fluro647 labeled goat anti-human IgG Fc (1:300 dilution) was added to the secondary antibody, with ice bath for 20 min, and 50 μL/well PI added after washing once, incubated for 5 min, and flow cytometer (BD C6) was used for detection. The control antibody REGN5458 was synthesized and prepared according to US20200024356.
(In general: A flow cytometer gives signals particle by particle.)

Changes are numbered by the printed parent chain.

B1: aCD3-hVH1/VL5 (antibody, human IgG4, V domains shown)
VH: EVQLVESGGGLVQPGGSLRLSCAASGFTFNTYAMNWVRQAPGKGLEWVSRIRSKYNNYATYYADSVKDRFTISRDDSKNTLYLQMNSLRAEDTAVYYCVRHGNFGNSYVSWFAYWGQGTLVTVSS
VL: QAVVTQEPSLTVSPGGTVTLTCRSSTGAVTTSNYANWVQEKPGQAPRGLIGGTNKRAPWTPARFSGSLLGGKAALTITGAQAEDEAEYYCVLWYSNLWVFGGGTKLTVL
notes: also called humanized anti-CD3 antibody hVH1/VL5
With B1, the “affinity (ELISA)” value in experiment [1] came out at 0.6 nM. The “affinity (FACS)” value in experiment [2] came out at 10 nM.

B2: aCD3-hVH9/VL3 (antibody, human IgG4, V domains shown)
VH: B1 VH with Q39K, S49G, T80S, R89K, A90T
VL: B1 VL with Q1E, R23E, T26D, R56E, I77L, T78S, A82P, V91A
notes: also called humanized anti-CD3 antibody hVH9/VL3
B2: in experiment [1], the “affinity (ELISA)” value came out at 0.7 nM.

B3: aCD3-hVH9/VL1 (antibody, human IgG4, V domains shown)
VH: B1 VH with Q39K, S49G, T80S, R89K, A90T
VL: B1 VL with E40Q, I77L, T78S, A82P, V91A
notes: also called humanized anti-CD3 antibody hVH9/VL1
On to B3, for which the “affinity (ELISA)” value in experiment [1] came out at 0.49 nM. Besides, in experiment [2], the “affinity (FACS)” value was 7 nM.

B4: aCD3-hVH8/VL1 (antibody, human IgG4, V domains shown)
VH: B1 VH with Q39K, S49G, T80S, R89K, A90T, V99A
VL: B1 VL with E40Q, I77L, T78S, A82P, V91A
notes: also called humanized anti-CD3 antibody hVH8/VL1
With B4, the “affinity (ELISA)” value in experiment [1] was found to be 0.65 nM. The “affinity (FACS)” value in experiment [2] was 15 nM.

B5: aCD3-hVH8/VL5 (antibody, human IgG4, V domains shown)
VH: B1 VH with Q39K, S49G, T80S, R89K, A90T, V99A
VL: B1 VL
notes: also called humanized anti-CD3 antibody hVH8/VL5
With B5, the “affinity (ELISA)” value in experiment [1] amounted to 0.74 nM.

B6: BCMA × CD3 κλ003 (bispecific antibody, human IgG4 S228P, kappa, lambda)
light 1: DIVLTQSPASLAVSPGQRATITCRASKSVSTSGYSYMHWYQKKPGQPPKLLIYLASNLESGVPARFSGSGSGTDFTLTINPVEAEDTANYYCQHSRELPWTFGQGTKVEIKRTVAAPSVFIFPPSDEQLKSGTASVVCLLNNFYPREAKVQWKVDNALQSGNSQESVTEQDSKDSTYSLSSTLTLSKADYEKHKVYACEVTHQGLSSPVTKSFNRGEC
heavy 1: QVQLVQSGSELKKPGASVKVSCKASGYIFTNFGMNWVREAPGQGLEWMGWINTYTGEQIYADGFTGRFVFSLDTSASTAYLQISSLKAEDTAVYFCARGEIYYGYDVGFVYWGQGTLVTVSSASTKGPSVFPLAPCSRSTSESTAALGCLVKDYFPEPVTVSWNSGALTSGVHTFPAVLQSSGLYSLSSVVTVPSSSLGTKTYTCNVDHKPSNTKVDKRVESKYGPPCPPCPAPEFEGGPSVFLFPPKPKDTLMISRTPEVTCVVVDVSQEDPEVQFNWYVDGVEVHNAKTKPREEQFNSTYRVVSVLTVLHQDWLNGKEYKCKVSNKGLASSIEKTISKAKGQPREPQVCTLPPSQEEMTKNQVSLSCAVKGFYPSDIAVEWESNGQPENNYKTTPPVLDSDGSFFLVSKLTVDKSRWQEGNVFSCSVMHEALHNHYTQKSLSLSLGK
light 2: QAVVTQEPSLTVSPGGTVTLTCRSSTGAVTTSNYANWVQEKPGQAPRGLIGGTNKRAPWTPARFSGSLLGGKAALTITGAQAEDEAEYYCVLWYSNLWVFGGGTKLTVLGQPKAAPSVTLFPPSSEELQANKATLVCLISDFYPGAVTVAWKADSSPVKAGVETTTPSKQSNNKYAASSYLSLTPEQWKSHRSYSCQVTHEGSTVEKTVAPTECS
heavy 2: EVQLVESGGGLVQPGGSLRLSCAASGFTFNTYAMNWVRKAPGKGLEWVGRIRSKYNNYATYYADSVKDRFTISRDDSKNSLYLQMNSLKTEDTAVYYCVRHGNFGNSYVSWFAYWGQGTLVTVSSASTKGPSVFPLAPCSRSTSESTAALGCLVKDYFPEPVTVSWNSGALTSGVHTFPAVLQSSGLYSLSSVVTVPSSSLGTKTYTCNVDHKPSNTKVDKRVESKYGPPCPPCPAPEFEGGPSVFLFPPKPKDTLMISRTPEVTCVVVDVSQEDPEVQFNWYVDGVEVHNAKTKPREEQFNSTYRVVSVLTVLHQDWLNGKEYKCKVSNKGLASSIEKTISKAKGQPREPQVYTLPPCQEEMTKNQVSLWCLVKGFYPSDIAVEWESNGQPENNYKTTPPVLDSDGSFFLYSKLTVDKSRWQEGNVFSCSVMHEALHNHYTQKSLSLSLGK
notes: also called BCMA×CD3 κλ bispecific antibody
For orientation: Kd means a measure of binding affinity in units of concentration. High values mean a looser complex, low ones a tighter complex. As a reminder, the EC50 is the concentration needed to bring the measured effect to its halfway point. Low values mean higher potency in that assay, high ones lower potency in that assay. Take B6: the dissociation constant Kd in experiment [3] came out at 31 nM. Moreover, the EC50 in experiment [4] is 89 nM.

B7: BCMA × CD3 κλ006 (bispecific antibody)
light 1: B6 light 1 with S30T, M37I, N57D, S60A
heavy 1: B6 heavy 1 with A76V
light 2: B6 light 2
heavy 2: B6 heavy 2
notes: as for B6
Take B7: the affinity in experiment [3], expressed as Kd, was 27 nM.

B8: BCMA × CD3 κλ005 (bispecific antibody)
light 1: B6 light 1
heavy 1: B6 heavy 1 with A76V
light 2: B6 light 2
heavy 2: B6 heavy 2
notes: as for B6
Take B8: the Kd in experiment [3] came to 28 nM.
